The values that follow come from patent US20250084142A1 (INTARCIA THERAPEUTICS, published 2025).

First the molecules themselves.
T1: NPY2R
T1 sequence (P49146 1-381, species assumed, looked up): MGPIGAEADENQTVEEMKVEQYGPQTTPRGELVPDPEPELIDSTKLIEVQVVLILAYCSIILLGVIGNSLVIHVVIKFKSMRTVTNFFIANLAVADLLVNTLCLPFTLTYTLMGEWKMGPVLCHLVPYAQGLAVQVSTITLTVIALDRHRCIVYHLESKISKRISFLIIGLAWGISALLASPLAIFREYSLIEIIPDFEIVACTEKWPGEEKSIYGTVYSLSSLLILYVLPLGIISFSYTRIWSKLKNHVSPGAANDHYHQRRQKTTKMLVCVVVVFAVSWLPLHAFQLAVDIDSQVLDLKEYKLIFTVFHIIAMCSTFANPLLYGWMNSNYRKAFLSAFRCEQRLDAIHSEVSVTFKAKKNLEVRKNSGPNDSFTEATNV

T2: NPY5R
T2 sequence (Q15761 1-445, species assumed, looked up): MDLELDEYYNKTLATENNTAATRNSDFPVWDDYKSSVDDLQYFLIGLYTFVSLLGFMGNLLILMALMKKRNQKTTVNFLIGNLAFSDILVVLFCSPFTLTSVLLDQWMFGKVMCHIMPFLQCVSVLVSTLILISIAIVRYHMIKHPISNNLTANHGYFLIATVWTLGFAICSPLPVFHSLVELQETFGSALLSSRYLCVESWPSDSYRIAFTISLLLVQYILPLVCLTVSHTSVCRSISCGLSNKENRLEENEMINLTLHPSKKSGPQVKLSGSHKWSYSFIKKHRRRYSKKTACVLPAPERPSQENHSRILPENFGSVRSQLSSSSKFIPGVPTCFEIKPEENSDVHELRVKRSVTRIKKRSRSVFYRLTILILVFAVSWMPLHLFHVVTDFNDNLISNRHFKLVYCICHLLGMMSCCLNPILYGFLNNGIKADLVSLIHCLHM

B1: Compound A14 (peptide)
peptide: PKPEAPGKDASPEEWNRYY[dK]([γGlu-γGlu-C20 diacid])DLRHYLNWLTRQRF-NH2
modifications: N-terminus assumed
SMILES: CC(C)C[C@H](NC(=O)[C@H](Cc1ccc(O)cc1)NC(=O)[C@H](Cc1c[nH]cn1)NC(=O)[C@H](CCCNC(=N)N)NC(=O)[C@H](CC(C)C)NC(=O)[C@H](CC(=O)O)NC(=O)[C@@H](CCCCNC(=O)CC[C@H](NC(=O)CC[C@H](NC(=O)CCCCCCCCCCCCCCCCCCC(=O)O)C(=O)O)C(=O)O)NC(=O)[C@H](Cc1ccc(O)cc1)NC(=O)[C@H](Cc1ccc(O)cc1)NC(=O)[C@H](CCCNC(=N)N)NC(=O)[C@H](CC(N)=O)NC(=O)[C@H](Cc1c[nH]c2ccccc12)NC(=O)[C@H](CCC(=O)O)NC(=O)[C@H](CCC(=O)O)NC(=O)[C@@H]1CCCN1C(=O)[C@H](CO)NC(=O)[C@H](C)NC(=O)[C@H](CC(=O)O)NC(=O)[C@H](CCCCN)NC(=O)CNC(=O)[C@@H]1CCCN1C(=O)[C@H](C)NC(=O)[C@H](CCC(=O)O)NC(=O)[C@@H]1CCCN1C(=O)[C@H](CCCCN)NC(=O)[C@@H]1CCCN1)C(=O)N[C@@H](CC(N)=O)C(=O)N[C@@H](Cc1c[nH]c2ccccc12)C(=O)N[C@@H](CC(C)C)C(=O)N[C@H](C(=O)N[C@@H](CCCNC(=N)N)C(=O)N[C@@H](CCC(N)=O)C(=O)N[C@@H](CCCNC(=N)N)C(=O)N[C@@H](Cc1ccccc1)C(N)=O)[C@@H](C)O
B2: Compound A39 (peptide)
peptide: PKPEKPGK([γGlu-γGlu-C19 diacid])DASPKEWERYYKDLRHYLNWLTRQRF-NH2
modifications: lactam 16-20; N-terminus assumed
SMILES: CC(C)C[C@H](NC(=O)[C@H](CC(=O)O)NC(=O)[C@@H]1CCCCNC(=O)CC[C@H](NC(=O)[C@H](Cc2c[nH]c3ccccc23)NC(=O)[C@H](CCC(=O)O)NC(=O)[C@H](CCCCN)NC(=O)[C@@H]2CCCN2C(=O)[C@H](CO)NC(=O)[C@H](C)NC(=O)[C@H](CC(=O)O)NC(=O)[C@H](CCCCNC(=O)CC[C@H](NC(=O)CC[C@H](NC(=O)CCCCCCCCCCCCCCCCCC(=O)O)C(=O)O)C(=O)O)NC(=O)CNC(=O)[C@@H]2CCCN2C(=O)[C@H](CCCCN)NC(=O)[C@H](CCC(=O)O)NC(=O)[C@@H]2CCCN2C(=O)[C@H](CCCCN)NC(=O)[C@@H]2CCCN2)C(=O)N[C@@H](CCCNC(=N)N)C(=O)N[C@@H](Cc2ccc(O)cc2)C(=O)N[C@@H](Cc2ccc(O)cc2)C(=O)N1)C(=O)N[C@@H](CCCNC(=N)N)C(=O)N[C@@H](Cc1c[nH]cn1)C(=O)N[C@@H](Cc1ccc(O)cc1)C(=O)N[C@@H](CC(C)C)C(=O)N[C@@H](CC(N)=O)C(=O)N[C@@H](Cc1c[nH]c2ccccc12)C(=O)N[C@@H](CC(C)C)C(=O)N[C@H](C(=O)N[C@@H](CCCNC(=N)N)C(=O)N[C@@H](CCC(N)=O)C(=O)N[C@@H](CCCNC(=N)N)C(=O)N[C@@H](Cc1ccccc1)C(N)=O)[C@@H](C)O
B3: Compound A65 (peptide)
peptide: PKPEAPGKDASPEEWNRYY[dK]([γGlu-dpeg-dpeg-γGlu-C20 diacid])DLRHYLNWLTRQRF-NH2
B4: Compound A35 (peptide)
peptide: PKPEK([γGlu-γGlu-C18 diacid])PGEDASPKEWDRYYKDLRHYLNWLTRQRF-NH2
modifications: N-terminus assumed
SMILES: CC(C)C[C@H](NC(=O)[C@H](CC(=O)O)NC(=O)[C@H](CCCCN)NC(=O)[C@H](Cc1ccc(O)cc1)NC(=O)[C@H](Cc1ccc(O)cc1)NC(=O)[C@H](CCCNC(=N)N)NC(=O)[C@H](CC(=O)O)NC(=O)[C@H](Cc1c[nH]c2ccccc12)NC(=O)[C@H](CCC(=O)O)NC(=O)[C@H](CCCCN)NC(=O)[C@@H]1CCCN1C(=O)[C@H](CO)NC(=O)[C@H](C)NC(=O)[C@H](CC(=O)O)NC(=O)[C@H](CCC(=O)O)NC(=O)CNC(=O)[C@@H]1CCCN1C(=O)[C@H](CCCCNC(=O)CC[C@H](NC(=O)CC[C@H](NC(=O)CCCCCCCCCCCCCCCCC(=O)O)C(=O)O)C(=O)O)NC(=O)[C@H](CCC(=O)O)NC(=O)[C@@H]1CCCN1C(=O)[C@H](CCCCN)NC(=O)[C@@H]1CCCN1)C(=O)N[C@@H](CCCNC(=N)N)C(=O)N[C@@H](Cc1c[nH]cn1)C(=O)N[C@@H](Cc1ccc(O)cc1)C(=O)N[C@@H](CC(C)C)C(=O)N[C@@H](CC(N)=O)C(=O)N[C@@H](Cc1c[nH]c2ccccc12)C(=O)N[C@@H](CC(C)C)C(=O)N[C@H](C(=O)N[C@@H](CCCNC(=N)N)C(=O)N[C@@H](CCC(N)=O)C(=O)N[C@@H](CCCNC(=N)N)C(=O)N[C@@H](Cc1ccccc1)C(N)=O)[C@@H](C)O
B5: Compound A34 (peptide)
peptide: PKPEKPGEDASPKEWDRYYK([γGlu-γGlu-C20 diacid])DLRHYLNWLTRQRF-NH2
modifications: N-terminus assumed
SMILES: CC(C)C[C@H](NC(=O)[C@H](CC(=O)O)NC(=O)[C@H](CCCCNC(=O)CC[C@H](NC(=O)CC[C@H](NC(=O)CCCCCCCCCCCCCCCCCCC(=O)O)C(=O)O)C(=O)O)NC(=O)[C@H](Cc1ccc(O)cc1)NC(=O)[C@H](Cc1ccc(O)cc1)NC(=O)[C@H](CCCNC(=N)N)NC(=O)[C@H](CC(=O)O)NC(=O)[C@H](Cc1c[nH]c2ccccc12)NC(=O)[C@H](CCC(=O)O)NC(=O)[C@H](CCCCN)NC(=O)[C@@H]1CCCN1C(=O)[C@H](CO)NC(=O)[C@H](C)NC(=O)[C@H](CC(=O)O)NC(=O)[C@H](CCC(=O)O)NC(=O)CNC(=O)[C@@H]1CCCN1C(=O)[C@H](CCCCN)NC(=O)[C@H](CCC(=O)O)NC(=O)[C@@H]1CCCN1C(=O)[C@H](CCCCN)NC(=O)[C@@H]1CCCN1)C(=O)N[C@@H](CCCNC(=N)N)C(=O)N[C@@H](Cc1c[nH]cn1)C(=O)N[C@@H](Cc1ccc(O)cc1)C(=O)N[C@@H](CC(C)C)C(=O)N[C@@H](CC(N)=O)C(=O)N[C@@H](Cc1c[nH]c2ccccc12)C(=O)N[C@@H](CC(C)C)C(=O)N[C@H](C(=O)N[C@@H](CCCNC(=N)N)C(=O)N[C@@H](CCC(N)=O)C(=O)N[C@@H](CCCNC(=N)N)C(=O)N[C@@H](Cc1ccccc1)C(N)=O)[C@@H](C)O
B6: Compound A33 (peptide)
peptide: PKPEAPGK([γGlu-γGlu-C19 diacid])DASPEEWDRYYKDLRHYLNWLTRQRF-NH2
B7: Compound A32 (peptide)
peptide: PKPEAPGK([γGlu-γGlu-C18 diacid])DASPEEWDRYYKDLRHYLNWLTRQRF-NH2
B8: Compound A36 (peptide)
peptide: PKPEK([γGlu-γGlu-C19 diacid])PGEDASPKEWNRYYKDLRHYLNWLTRQRF-NH2
modifications: N-terminus assumed
SMILES: CC(C)C[C@H](NC(=O)[C@H](CC(=O)O)NC(=O)[C@H](CCCCN)NC(=O)[C@H](Cc1ccc(O)cc1)NC(=O)[C@H](Cc1ccc(O)cc1)NC(=O)[C@H](CCCNC(=N)N)NC(=O)[C@H](CC(N)=O)NC(=O)[C@H](Cc1c[nH]c2ccccc12)NC(=O)[C@H](CCC(=O)O)NC(=O)[C@H](CCCCN)NC(=O)[C@@H]1CCCN1C(=O)[C@H](CO)NC(=O)[C@H](C)NC(=O)[C@H](CC(=O)O)NC(=O)[C@H](CCC(=O)O)NC(=O)CNC(=O)[C@@H]1CCCN1C(=O)[C@H](CCCCNC(=O)CC[C@H](NC(=O)CC[C@H](NC(=O)CCCCCCCCCCCCCCCCCC(=O)O)C(=O)O)C(=O)O)NC(=O)[C@H](CCC(=O)O)NC(=O)[C@@H]1CCCN1C(=O)[C@H](CCCCN)NC(=O)[C@@H]1CCCN1)C(=O)N[C@@H](CCCNC(=N)N)C(=O)N[C@@H](Cc1c[nH]cn1)C(=O)N[C@@H](Cc1ccc(O)cc1)C(=O)N[C@@H](CC(C)C)C(=O)N[C@@H](CC(N)=O)C(=O)N[C@@H](Cc1c[nH]c2ccccc12)C(=O)N[C@@H](CC(C)C)C(=O)N[C@H](C(=O)N[C@@H](CCCNC(=N)N)C(=O)N[C@@H](CCC(N)=O)C(=O)N[C@@H](CCCNC(=N)N)C(=O)N[C@@H](Cc1ccccc1)C(N)=O)[C@@H](C)O

Starred links: 1 amine or outer side, 2 acyl side, 3 side chain; linkers in the order of their positions; H or OH if unused. Positions of bridges follow the written chain, without caps; N, C: chain ends. Non-standard residues stand in square brackets, D forms with d. Groups on a side chain read outwards from the residue. No end group written: not given here. *: point of attachment. dpeg = —[CO(CH2)O(CH2)2O(CH2)NH]— spacer, O=C(COCCOCN[*:1])[*:2]; C20 diacid = O=C(O)CCCCCCCCCCCCCCCCCCC(=O)*; C19 diacid = O=C(O)CCCCCCCCCCCCCCCCCC(=O)*; C18 diacid = O=C(O)CCCCCCCCCCCCCCCCC(=O)*; γGlu = O=C(O)[C@H](CCC(=O)[*:2])N[*:1]

The target in the first assay is NPY1R. Nature of the assay: cell-based or functional assay.
Chain of NPY1R (P25929 whole entry): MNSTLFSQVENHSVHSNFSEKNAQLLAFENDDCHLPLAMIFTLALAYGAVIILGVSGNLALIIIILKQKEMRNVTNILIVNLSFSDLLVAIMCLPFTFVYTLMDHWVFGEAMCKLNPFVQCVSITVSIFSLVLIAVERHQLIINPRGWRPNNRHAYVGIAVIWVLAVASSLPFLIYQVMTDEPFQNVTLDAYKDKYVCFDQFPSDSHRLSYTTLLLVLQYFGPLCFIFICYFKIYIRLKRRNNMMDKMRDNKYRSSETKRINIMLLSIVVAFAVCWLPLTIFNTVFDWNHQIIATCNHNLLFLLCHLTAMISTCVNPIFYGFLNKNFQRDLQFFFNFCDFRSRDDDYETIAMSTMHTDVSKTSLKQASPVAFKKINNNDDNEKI
For the molecule B1, the “NPY1R pEC50” value was 8.5 -Log(EC50, M).
On the same count and under the same terms, next, B2: 9.1 -Log(EC50, M); B3: 8 -Log(EC50, M).

For a further assay, the target named is T1, NPY2R. Nature of the assay: cell-based or functional assay.
In the case of B4, the “NPY2R pEC50” value was 10.5 -Log(EC50, M).
On the same count and under the same terms, next, B5: 10.2 -Log(EC50, M).
On the same count and under the same terms, then B6, with 10.4 -Log(EC50, M); and B7, with 10.8 -Log(EC50, M); and B2, with 10.4 -Log(EC50, M).
As for B3, the “NPY2R pEC50” value was 10.2 -Log(EC50, M).
Same read-out and setting: then B8, with 10.9 -Log(EC50, M).

The target in another assay is T2, NPY5R. The assay can be described thus: cell-based or functional assay.
For B4, the “NPY5R pEC50” value was 9.1 -Log(EC50, M).
Same read-out and setting: next, B5: 8.8 -Log(EC50, M).
Same read-out and setting: next, B6: 8.9 -Log(EC50, M); B1: 8.3 -Log(EC50, M).
Still for that read-out and setting: then B7, with 9 -Log(EC50, M).
Consider B2, for which the “NPY5R pEC50” value is 8.9 -Log(EC50, M).
Still for that read-out and setting: next, B3: 8.6 -Log(EC50, M); B8: 8.7 -Log(EC50, M).
